We go through one substance from US20180135015A1.

The target in this assay is NKG2D ligands (NKG2DL) on target cells. In words: cell-based or functional assay.

Substance “NKG2D-DAP10-CD3zeta chimeric receptor complex (from UniProt Q9UBK5 19-93)” gave a target cell apoptosis (U-2 OS), apoptotic cells/0.07 mm^2 (apoptotic cells/0.07 mm^2) of 11.7.
